{"source": "paper PMC13395435", "key": {"3xHA-NLuc-dSP-AVR-Pia": {"target": "3xHA-NLuc-dSP-AVR-Pia (UniProt B9WZW9)", "experiment": "split luciferase complementation assay", "conditions": "parent: est. 3400; read off a plot"}, "OsHPP10-HMA (rice)": {"target": "OsHPP10-HMA (rice)", "experiment": "ITC"}, "OsHPP09-HMA (rice)": {"target": "OsHPP09-HMA (rice)", "experiment": "ITC"}, "OsHPP11-HMA (rice)": {"target": "OsHPP11-HMA (rice)", "experiment": "ITC"}, "OsHIPP21-HMA (rice)": {"target": "OsHIPP21-HMA (rice)", "experiment": "ITC"}, "[1]": {"target": "recombinant OsHIPP21-HMA (rice)", "experiment": "ITC"}, "[2]": {"target": "recombinant OsHPP11-HMA (rice)", "experiment": "ITC"}, "[3]": {"target": "recombinant OsHPP09-HMA (rice)", "experiment": "ITC"}, "[4]": {"target": "recombinant OsHPP10-HMA (rice)", "experiment": "ITC"}, "[5]": {"target": "recombinant OsHPP09-HMA (rice)", "experiment": "NMR titration"}}, "note": "Values joined by “and” are separate entries in the source; they are usually repeats but may differ in a detail not shown here. Equal entries are not always repeated.", "data": [{"substance": "3xFlag-CLuc-OsHPP09 full-length A37W", "values": [{"measurement": "response", "setting": "3xHA-NLuc-dSP-AVR-Pia", "result": 1300}]}, {"substance": "3xFlag-CLuc-OsHPP09 full-length D33A", "values": [{"measurement": "response", "setting": "3xHA-NLuc-dSP-AVR-Pia", "result": 2800}]}, {"substance": "3xFlag-CLuc-OsHPP09 full-length D33H", "values": [{"measurement": "response", "setting": "3xHA-NLuc-dSP-AVR-Pia", "result": 2600}]}, {"substance": "3xFlag-CLuc-OsHPP09 full-length D33R", "values": [{"measurement": "response", "setting": "3xHA-NLuc-dSP-AVR-Pia", "result": 2000}]}, {"substance": "3xFlag-CLuc-OsHPP09 full-length K19A", "values": [{"measurement": "response", "setting": "3xHA-NLuc-dSP-AVR-Pia", "result": 1800}]}, {"substance": "3xFlag-CLuc-OsHPP09 full-length K19W", "values": [{"measurement": "response", "setting": "3xHA-NLuc-dSP-AVR-Pia", "result": 1500}]}, {"substance": "3xFlag-CLuc-OsHPP09 full-length Q20A", "values": [{"measurement": "response", "setting": "3xHA-NLuc-dSP-AVR-Pia", "result": 3100}]}, {"substance": "AVR-Pia (natural protein)", "values": [{"measurement": "Kd", "setting": "OsHPP10-HMA (rice)", "result": "6510 nM and 7470 nM"}, {"measurement": "Kd", "setting": "OsHPP09-HMA (rice)", "result": "125 nM and 185 nM"}, {"measurement": "Kd", "setting": "OsHPP11-HMA (rice)", "result": "925 nM and 929 nM"}, {"measurement": "Kd", "setting": "OsHIPP21-HMA (rice)", "result": "1970 nM and 2330 nM"}]}, {"substance": "recombinant AVR-Pia (from UniProt B9WZW9 1-85) (natural protein)", "values": [{"measurement": "Kd", "setting": "[1]", "result": 1290, "unit": "nM"}, {"measurement": "Kd", "setting": "[2]", "result": 772, "unit": "nM"}, {"measurement": "Kd", "setting": "[3]", "result": 115, "unit": "nM"}, {"measurement": "Kd", "setting": "[4]", "result": 5260, "unit": "nM"}, {"measurement": "Kd", "setting": "[5]", "result": "< 100", "unit": "nM"}]}]}
